The values below come from patent publication US20250092426, “CAS ENDONUCLEASES AND RELATED METHODS” (Flagship Pioneering Innovations VII, LLC, published 2025).

This data set deals with T1, CasEnd-26 (synthetic construct).
T1 chain: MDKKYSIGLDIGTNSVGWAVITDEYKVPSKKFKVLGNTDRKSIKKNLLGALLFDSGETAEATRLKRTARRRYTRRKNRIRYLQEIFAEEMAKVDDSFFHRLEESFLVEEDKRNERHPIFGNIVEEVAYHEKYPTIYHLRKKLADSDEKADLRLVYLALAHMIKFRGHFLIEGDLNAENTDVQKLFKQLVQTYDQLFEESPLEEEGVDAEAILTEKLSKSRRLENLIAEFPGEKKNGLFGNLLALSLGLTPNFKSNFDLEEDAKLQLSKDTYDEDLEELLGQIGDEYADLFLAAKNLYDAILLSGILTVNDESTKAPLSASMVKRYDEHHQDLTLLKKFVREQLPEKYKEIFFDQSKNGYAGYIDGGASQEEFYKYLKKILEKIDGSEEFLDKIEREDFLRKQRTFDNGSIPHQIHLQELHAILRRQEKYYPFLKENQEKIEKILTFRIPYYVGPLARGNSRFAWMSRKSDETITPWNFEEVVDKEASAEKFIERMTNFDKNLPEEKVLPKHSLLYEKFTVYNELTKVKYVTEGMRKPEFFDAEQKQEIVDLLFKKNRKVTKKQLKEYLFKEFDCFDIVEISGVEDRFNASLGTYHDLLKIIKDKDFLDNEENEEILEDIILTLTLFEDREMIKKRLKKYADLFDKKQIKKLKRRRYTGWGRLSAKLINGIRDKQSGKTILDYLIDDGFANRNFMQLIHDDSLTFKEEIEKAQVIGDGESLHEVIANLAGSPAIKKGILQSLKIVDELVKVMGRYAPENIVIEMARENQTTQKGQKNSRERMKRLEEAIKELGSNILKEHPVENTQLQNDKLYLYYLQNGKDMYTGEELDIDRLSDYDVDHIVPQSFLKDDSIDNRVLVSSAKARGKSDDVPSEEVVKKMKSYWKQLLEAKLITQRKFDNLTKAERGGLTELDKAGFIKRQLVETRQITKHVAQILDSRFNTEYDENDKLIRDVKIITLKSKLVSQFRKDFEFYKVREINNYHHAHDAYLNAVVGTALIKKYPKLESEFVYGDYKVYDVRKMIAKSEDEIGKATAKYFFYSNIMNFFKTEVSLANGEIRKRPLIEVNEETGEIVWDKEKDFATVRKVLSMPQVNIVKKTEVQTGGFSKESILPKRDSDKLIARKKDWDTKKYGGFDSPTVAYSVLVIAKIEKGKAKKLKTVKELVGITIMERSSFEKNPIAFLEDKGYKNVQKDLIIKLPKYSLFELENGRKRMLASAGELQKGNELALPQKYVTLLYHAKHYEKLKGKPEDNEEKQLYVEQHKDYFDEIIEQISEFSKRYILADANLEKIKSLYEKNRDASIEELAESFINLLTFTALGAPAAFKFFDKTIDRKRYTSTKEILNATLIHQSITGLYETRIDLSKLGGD
Nature of the data set: cell_activity; +++; HEK293T; PAM not stated. The method in brief: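 Editing activity was scored as the fraction of GFP+ cells on day 4 by flow cytometry. BFP-expressing HEK293T cells (250,000) received by nucleofection 200 ng plasmid for the RT-Cas fusion protein and 200 ng template RNA plasmid designed to convert BFP to GFP.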

B1: BFP-to-GFP template RNA ; BFP reporter protospacer (ssRNA ; dsDNA)
RNA: GCCGAAGCACUGCACGCCGUGUUUUAGAGCUAGAAAUAGCAAGUUAAAAUAAGGCUAGUCCGUUAUCAACUUGAAAAAGUGGCACCGAGUCGGUGCACCCUGACGUACGGCGUGCAGUGCUU
DNA 1: GCCGAAGCACTGCACGCCGT
DNA 2: ACGGCGTGCAGTGCTTCGGC
Regarding B1, the activity was ≥ 100 % of reference.
